Columns and labels:
GnRHR-DesK191 (human) [1] = target: GnRHR-DesK191 (human) (UniProt P30968)
GnRHR-DesK191 (human) [2] = target: GnRHR-DesK191 (human) (UniProt P30968); experiment: radioligand binding; transfected MDA-MB-231 cells in 24-well plates, 90 minutes at room temperature with [125I]-Buserelin in the presence or absence of excess (10 uM) unlabeled Buserelin; cells washed, solubilized and counted; relative affinities given as Ki
[3] = target: Wild-type gonadotropin-releasing hormone receptor (human) (UniProt P30968); experiment: as above
[4] = target: endogenous GnRHR of MDA-MB-231 cells (human (endogenous in MDA-MB-231)) (UniProt P30968); experiment: as above

Substance: Buserelin (peptide)
- Buserelin-stimulated inositol phosphate (IP) production in transfected MDA-MB-231 cells, relative to WT GnRHR (% of WT levels) (GnRHR-DesK191 (human) [1]): 590
- Ki (GnRHR-DesK191 (human) [2]): 700 nM
- Ki [3]: 500 nM
- Ki [4]: 1030 nM

Substance: [125I]-Buserelin (peptide)
- [125I]-Buserelin binding, percent of WT levels (% of WT levels) (GnRHR-DesK191 (human) [2]): 139

From article PMC3518142
